Assay results taken from the supplement of paper PMC9233669.
Variants at the floor of the assay were thinned out.

What was measured:
biotinyl-Phe-oxazolone = test: self-aminoacylation, catalytic enhancement (BFO) (fold over background); higher = more active; k-Seq, kA / k0A0; sequences stand for … in GGGAAUGGAUCCACAUCUACGAAUUC…UUCACUGCAGACUUGACGAAGCUG
Method in brief: (§1)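 Each biotinyl-aminoacyl-oxazolone, at 2–1250 μM, was incubated with mutagenized RNA pools (0.43 μM) carrying a 21-nt variable region. The 50 μL reactions contained HEPES/NaCl/KCl/MgCl2/CaCl2 buffer with 5% acetonitrile at pH 6.9–7.0 and ran for 90 minutes at room temperature. After streptavidin capture, RNA was measured by qPCR in triplicate and by Illumina sequencing, and catalytic enhancement was calculated as median kA over the uncatalyzed rate from a pseudo-first-order fit of per-sequence fraction reacted.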

biotinyl-Ile-oxazolone = test: self-aminoacylation, catalytic enhancement (BIO) (fold over background); higher = more active; k-Seq, kA / k0A0; sequences stand for … in GGGAAUGGAUCCACAUCUACGAAUUC…UUCACUGCAGACUUGACGAAGCUG
Method in brief: as §1

biotinyl-Met-oxazolone = test: self-aminoacylation, catalytic enhancement (BMO) (fold over background); higher = more active; k-Seq, kA / k0A0; sequences stand for … in GGGAAUGGAUCCACAUCUACGAAUUC…UUCACUGCAGACUUGACGAAGCUG
Method in brief: as §1

biotinyl-Val-oxazolone = test: self-aminoacylation, catalytic enhancement (BVO) (fold over background); higher = more active; k-Seq, kA / k0A0; sequences stand for … in GGGAAUGGAUCCACAUCUACGAAUUC…UUCACUGCAGACUUGACGAAGCUG
Method in brief: as §1

biotinyl-Leu-oxazolone = test: self-aminoacylation, catalytic enhancement (BLO) (fold over background); higher = more active; k-Seq, kA / k0A0; sequences stand for … in GGGAAUGGAUCCACAUCUACGAAUUC…UUCACUGCAGACUUGACGAAGCUG
Method in brief: as §1

biotinyl-Trp-oxazolone = test: self-aminoacylation, catalytic enhancement (BWO) (fold over background); higher = more active; k-Seq, kA / k0A0; sequences stand for … in GGGAAUGGAUCCACAUCUACGAAUUC…UUCACUGCAGACUUGACGAAGCUG
Method in brief: as §1

Sequence | self-aminoacylation (biotinyl-Phe-oxazolone) | self-aminoacylation (biotinyl-Ile-oxazolone) | self-aminoacylation (biotinyl-Met-oxazolone) | self-aminoacylation (biotinyl-Val-oxazolone) | self-aminoacylation (biotinyl-Leu-oxazolone) | self-aminoacylation (biotinyl-Trp-oxazolone)
AUUACCCUGAUCAUCGAGUGA [Fam2.1 aminoacylation ribozyme variant] | 21.8 | 3.8 | 7.96 | 4.15 | 7.82 | 9.57
AUUACCCUGAUCAUCGAGUUA [Fam2.1 aminoacylation ribozyme variant] | 0.549 | 1.02 | 0.824 | 1.11 | 0.958 | 0.61
AUUACCCUGAUCAUCGGGUGA [Fam2.1 aminoacylation ribozyme variant] | 67.3 | 5.24 | 9.51 | 5.38 | 9.62 | 10.7
AUUACCCUGAUCCUCGAGUGA [Fam2.1 aminoacylation ribozyme variant] | 8.63 | 2.35 | 3.7 | 2.52 | 3.73 | 3.91
AUUACCCUGAUCUUCGAGUGA [Fam2.1 aminoacylation ribozyme variant] | 15.7 | 2.56 | 4.57 | 2.74 | 5.04 | 6.11
AUUACCCUGCACAUCGAGUGA [Fam2.1 aminoacylation ribozyme variant] | 29.8 | 3.01 | 6.87 | 3.65 | 7.49 | 8.38
AUUACCCUGCUAAUCGAGUGA [Fam2.1 aminoacylation ribozyme variant] | 11.2 | 1.44 | 2.41 | 1.58 | 2.41 | 3.01
AUUACCCUGCUCAUCGAGUGG [Fam2.1 aminoacylation ribozyme variant] | 0.52 | 0.831 | 1 | 0.81 | 1.09 | 0.578
AUUACCCUGCUCAUUGAGUGA [Fam2.1 aminoacylation ribozyme variant] | 19.1 | 2.27 | 4.57 | 2.39 | 4.39 | 5.58
AUUACCCUGGACAUCGAGUGC [Fam2.1 aminoacylation ribozyme variant] | 1.19 | 0.87 | 0.807 | 0.852 | 0.793 | 0.573
AUUACCCUGGACAUCGAGUUA [Fam2.1 aminoacylation ribozyme variant] | 0.728 | 0.805 | 0.682 | 0.75 | 0.772 | 0.639
AUUACCCUGGACAUCGUGUGA [Fam2.1 aminoacylation ribozyme variant] | 10.9 | 1.39 | 2.41 | 1.44 | 2.45 | 2.5
AUUACCCUGGACAUUGAGUGA [Fam2.1 aminoacylation ribozyme variant] | 69.4 | 4.56 | 11.3 | 4.58 | 10.4 | 13.4
AUUACCCUGGCCAUCGAGCGA [Fam2.1 aminoacylation ribozyme variant] | 9.68 | 2.02 | 1.61 | 1.93 | 1.66 | 2.39
AUUACCCUGGCCAUCGAUUGA [Fam2.1 aminoacylation ribozyme variant] | 0.28 | 0.753 | 1.03 | 0.974 | 0.851 | 0.913
AUUACCCUGGGCAUCGAGUCA [Fam2.1 aminoacylation ribozyme variant] | 0.615 | 0.946 | 0.719 | 0.768 | 0.72 | 0.708
AUUACCCUGGGCAUCGAGUGA [Fam2.1 aminoacylation ribozyme variant] | 21.4 | 2.57 | 4.85 | 2.75 | 5.1 | 5.82
AUUACCCUGGGCAUCGAGUUA [Fam2.1 aminoacylation ribozyme variant] | 1.15 | 0.909 | 0.642 | 1.11 | 0.805 | 0.678
AUUACCCUGGGCAUCGAUUGA [Fam2.1 aminoacylation ribozyme variant] | 0.38 | 0.645 | 0.593 | 0.648 | 0.749 | 0.622
AUUACCCUGGGCAUCUAGUGA [Fam2.1 aminoacylation ribozyme variant] | 44.6 | 3 | 6.2 | 3.38 | 7.13 | 7.33
AUUACCCUGGUAAACGAGUGA [Fam2.1 aminoacylation ribozyme variant] | 150 | 7.26 | 19.8 | 7.77 | 19.1 | 20.1
AUUACCCUGGUAAUCGAGGGA [Fam2.1 aminoacylation ribozyme variant] | 0.55 | 1.1 | 0.924 | 1.04 | 0.931 | 0.832
AUUACCCUGGUAAUCGAGUGA [Fam2.1 aminoacylation ribozyme variant] | 54.5 | 3.7 | 8.63 | 3.82 | 8.46 | 9.96
AUUACCCUGGUCAAAGAGUGA [Fam2.1 aminoacylation ribozyme variant] | 45.6 | 4 | 8.35 | 4.26 | 8.08 | 10.5
AUUACCCUGGUCAACAAGUGA [Fam2.1 aminoacylation ribozyme variant] | 23.2 | 3.48 | 7.83 | 3.85 | 6.6 | 8.34
AUUACCCUGGUCAACGAGAGA [Fam2.1 aminoacylation ribozyme variant] | 0.544 | 0.807 | 0.82 | 0.904 | 0.664 | 0.896

Sequence | self-aminoacylation (biotinyl-Phe-oxazolone) | self-aminoacylation (biotinyl-Ile-oxazolone) | self-aminoacylation (biotinyl-Met-oxazolone) | self-aminoacylation (biotinyl-Val-oxazolone) | self-aminoacylation (biotinyl-Leu-oxazolone) | self-aminoacylation (biotinyl-Trp-oxazolone)
AUUACCCUGGUCAAGGAGUGA [Fam2.1 aminoacylation ribozyme variant] | 3.96 | 1.94 | 3.47 | 2.04 | 2.87 | 3.32
AUUACCCUGGUCACCGUGUGA [Fam2.1 aminoacylation ribozyme variant] | 21.1 | 1.98 | 3.88 | 2.06 | 3.95 | 5.51
AUUACCCUGGUCACCUAGUGA [Fam2.1 aminoacylation ribozyme variant] | 25.9 | 2.12 | 4.99 | 2.49 | 4.95 | 5.72
AUUACCCUGGUCAGCGAGAGA [Fam2.1 aminoacylation ribozyme variant] | 0.961 | 1.43 | 1.27 | 1.51 | 1.26 | 1.54
AUUACCCUGGUCAGCGAGUAA [Fam2.1 aminoacylation ribozyme variant] | 0.633 | 1.19 | 1.48 | 1.27 | 1.14 | 0.914
AUUACCCUGGUCAGGGAGUGA [Fam2.1 aminoacylation ribozyme variant] | 18.9 | 2.57 | 3.36 | 2.54 | 3.27 | 2.41
AUUACCCUGGUCAUAGAGUGA [Fam2.1 aminoacylation ribozyme variant] | 54.8 | 4.72 | 10.4 | 4.94 | 9.8 | 11.9
AUUACCCUGGUCAUAGGGUGA [Fam2.1 aminoacylation ribozyme variant] | 42.3 | 4.03 | 6.67 | 3.12 | 7.73 | 7.12
AUUACCCUGGUCAUCAAAUGA [Fam2.1 aminoacylation ribozyme variant] | 1.1 | 1.1 | 1.14 | 0.806 | 0.969 | 0.735
AUUACCCUGGUCAUCAAGCGA [Fam2.1 aminoacylation ribozyme variant] | 0.84 | 0.846 | 1 | 1.13 | 0.895 | 0.661
AUUACCCUGGUCAUCAAGUGA [Fam2.1 aminoacylation ribozyme variant] | 4.11 | 1.51 | 2.31 | 1.79 | 2.25 | 2.87
AUUACCCUGGUCAUCCAUUGA [Fam2.1 aminoacylation ribozyme variant] | 1.15 | 1.08 | 0.84 | 1.08 | 1.14 | 0.684
AUUACCCUGGUCAUCCCGUGA [Fam2.1 aminoacylation ribozyme variant] | 43.3 | 3.61 | 7.44 | 4.22 | 9.66 | 9.33
AUUACCCUGGUCAUCGAAUGU [Fam2.1 aminoacylation ribozyme variant] | 0.64 | 0.894 | 0.925 | 0.788 | 1.06 | 0.653
AUUACCCUGGUCAUCGAAUUA [Fam2.1 aminoacylation ribozyme variant] | 0.751 | 1.26 | 1.5 | 1.18 | 0.955 | 0.504
AUUACCCUGGUCAUCGAGCGA [Fam2.1 aminoacylation ribozyme variant] | 3.41 | 2.15 | 3.51 | 2.18 | 3.7 | 3.33
AUUACCCUGGUCAUCGAGUCG [Fam2.1 aminoacylation ribozyme variant] | 0.759 | 0.765 | 0.797 | 0.976 | 0.794 | 0.725
AUUACCCUGGUCAUCGAGUUA [Fam2.1 aminoacylation ribozyme variant] | 26.4 | 4.08 | 10.8 | 4.86 | 10.3 | 8.28
AUUACCCUGGUCAUCGCGUGA [Fam2.1 aminoacylation ribozyme variant] | 139 | 8.09 | 18.3 | 9.74 | 20.3 | 20.1
AUUACCCUGGUCAUCGGGUGA [Fam2.1 aminoacylation ribozyme variant] | 711 | 47 | 122 | 60.9 | 133 | 140
AUUACCCUGGUCAUCGGGUGU [Fam2.1 aminoacylation ribozyme variant] | 722 | 40.7 | 123 | 56.5 | 136 | 133
AUUACCCUGGUCAUCGGGUUA [Fam2.1 aminoacylation ribozyme variant] | 218 | 12.3 | 38.5 | 17.8 | 42.4 | 45.8
AUUACCCUGGUCAUCGGUUGA [Fam2.1 aminoacylation ribozyme variant] | 6.78 | 1.62 | 2 | 1.34 | 1.94 | 3.08
AUUACCCUGGUCAUCGUAUGA [Fam2.1 aminoacylation ribozyme variant] | 0.633 | 0.789 | 0.984 | 1.02 | 0.814 | 0.855
AUUACCCUGGUCAUCGUGGGA [Fam2.1 aminoacylation ribozyme variant] | 4.91 | 1.18 | 1.33 | 1.22 | 1.58 | 1.98
